These results are taken from the NTF2 design screens of Basanta et al. (2020).

This data set is described as follows: protease stability score; higher = more stable; yeast display proteolysis, trypsin and chymotrypsin.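 Note: log10 excess protease needed over predicted unfolded state with 0 meaning unfolded.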
“DENTQKQIAKKVVDVIRNGDPKQLHDLFDPNARLNIGDRTYTGSKEFQKHAETLRRNVDHIQVKSIDVQGEHIHINMVLNVNGKQYNANFRVDVHNGKAKQMSVEYRDKEEYKTLKR” showed a protease stability score of 0.362.

With “DENVLKRVKELLRTNNWEELANKADKDVEMRVGDKEWRGREQVVRAHKKLYDRVDHFKIDSMHWRNGHLVVNFVAEVNGKRAVMVLEMKVHNGRIKRITLEARDKDDEEFIEEALR”, the protease stability score came out at 1.47.

As to “DENVRRLVEHLIRAVQSNDPDKVVENLDPNASIHVGEKRYHGEDRAKDMYETEKNQMRVQVRLTQLHVQGNHAKLRETVLIDHNGRPVNVSLDMSLIAHNGRVHEIHETVPEENRKERKG”, the protease stability score is -0.029.

On to “DENVVKEVEKLLEWIQSGNEQHIQEMMDKHARAQVGDQKVKGRKQVSTQWRRLAEDIDIHARVKDMKNDGNRAILEIHQVRHHNGDPDEFHANQIVTMHGDRIKHLELQNTK”, for which the protease stability score was -0.283.

Turning to “DENVVKRVHDALQTNDWQQLADLFDKDARVHVGEFQLHGHEEVQKFVDLQRKQIDHMEVRSIEIDGERAEAEFVIRVDGRKREAEITIRANNGKAKEMKIQFTDKDFERKMREKME”, the protease stability score came out at 0.836.

With “DENVVKTAKNWFKAVQTGDTQEIHKNADPNARFQIGDKEYEGMEEYDKEQKERFEHMRVDYKDVTIRADGEHLHVKVKAKVNVNGQPHDVTFTIEARVDNGKFKEIVVKFDPDQQDRVEK”, the protease stability score worked out at 0.338.

On to “DEQAKEHIEEWMKAVKTGDEHTLREMADENAHFEIGDKTLHGMREFVKEQAERFRNIRVSYKRIDIRVQGNKVTVVVRFVVQHDGRPDERTVTFVFTFHNGQIENMQVKDEQ”, for which the protease stability score worked out at 1.17.

Take “DEQAKEVAEHWWEAVKKNDPTQAKENADKDVRARVGDQEIHGREDLATWLDQQKREMRIDLQIDSVSVSNGTLDIKAKMQVEDNGTPEHNTVEASMVVHNGRVKQFHIRVTK”: the protease stability score stood at 0.96.

In turn, “DEQAMSVAEELISALNTGNEDQVDRLMDPNAHLQVGDKRLHGREEVRRHVKTLKDQARFDMKVDSLRVQGEKVRLDATYTFEVNGRPREDRVIIDMTLTNGTVKRIRFNFDPDDWRKMEG” came in with a protease stability score of 1.04.

Consider “DEQAQKRAKNFMTAIQSNDPQKVKENVDKDVNIRIGDRIVHGREQLEDYYSHWNTKMRQRVSFKRMDVQGNHVDLKAEASNTNNGQPNHFEVRITITFHNGKIEKANLEFQP”, for which the protease stability score was -0.422.

Turning to “DEQATEVIERFLTALQRNDPHELKKQLDEDVRMNVGDKTLHGRDSFEKTWHEKLRTQRIELKDYRIEVQPGRVKAHVHYVVEHNGRPRTKRHTFSAEVHNGHVKHFHQQDEQ”, the protease stability score was -0.462.

For the sequence “DEQAVNEVEKMWRAIHDGDPERINKMFDPNAKFHIGNKELHGRENFATTMVKEQREIRRRVDIIRMSAHNGRITVRYRVDAEVNGEPYSNDITVSATVHNGKATDFTVHVDEDYLRKFNS”, the protease stability score was -0.004.

The sequence “DEQDDAHKAKEFLEAVVTGNEERLRRMVDPNARIHYGDQEYHGREKIVDLMIRWRERVDHFTIDRVHSHNGRVQMDAFFTHNGRTKRFVARVVVHNGKVKSIEYTDG” came in with a protease stability score of 0.017.

In the case of “DEQDEVKTLLDEIRKALETNDRERLRELVDKDAHFEYGDKKYQGSEHAARQMVEEQKNIDSQSVQLRDVQIHNGQANVDVVIEYTHNGRKRTFDAKFRFKVENGRVKLVENVQS”, the protease stability score was 0.895.

As to “DEQDLKKVREFVQAQEEGDEDKLRELMDPNARVRVGDHRINGMDEIVKTDKKEVDDIKLSITDLKMHVKGDHMKVRIHQIVNHNGRPHTKTVDVVAHRHNGRLKSMERQDTK”, the protease stability score is -0.122.

With “DEQDLNSVKENLKAIETNNPKRVKELLDKDARAQYGDKEVHGRDEIADQQRKEREDIDIRIDWKRMNIDNGRIHMEFEVQYNFNGKPLTNKVTMRNEAHNGSIKAMFWQLSEDQQRELDS”, the protease stability score is -0.374.

For the sequence “DEQDNEKARRIMDRGDPHELNRMADKDARVQVGDKTWHGRSQFEEFVKRFHDRVDHIEVKSVHVHGNEVRVDLVVVVNGHEARFIMVASVHNGHATSLSINVTDPRVEEVLRDIFD”, the protease stability score stood at 0.014.

In the case of “DEQDQAKKFNDEVRKIFETGNFRQFARLLDKNVTAEVGDQEVHGKEQAHKWAEDVWRTFDHIHYNMVDVDVENGRVEVHVQLTYDHNGTTERRTYVMELKLSNGRLKIVHMKQG”, the protease stability score was 0.809.

In the case of “DEQDQARKNVKTLANAIEDNDENQVHRLMDPNARLRIGDKDYHGREEAAHAMREIRETFDHIRIQVTRVRVEGDKINLIAKVNRNHNGRNEESEVDIQFVQDNGRARIVRLVDR”, the protease stability score came out at 0.554.

In turn, “DEQDQARRIVRHLLSAIRNNDPHRFQNNVDENVTLQYGDKTYNGDEDVHKYIEQFKREQKNARLRLLRLRIDNGRIDVIVRLRADHNGKEIRQIIVFHLVVRNGQARVETAHEG” returned a protease stability score of 1.17.

“DEQDQLKLAERVLKAVNDNNPQKFEELADENATVKVGDKTWHGRSHAQEMIKRFKERVDSLEIKHIDNRGNRARVHLVLEHNGRTTEMSIVVTVENGRAKAVVVHTK”: the protease stability score is -0.133.

In the case of “DEQEDRDMKKMYKNLQEGDDQRVADMADPNARWRVGDKTYHGKDSIRHWAKEVHDRMHFRIQSITVQNENGKVKVEIKWVTDENGKPVDQTVQVKAELHNGHIVDIDITTQS”, the protease stability score was 0.731.

Sequence “DEQEDRDRLEEALHAVMTGDEDRLMELADPNVEIQIGDKTFHGNTEARKVVETLKRKVDHLRVEEITKRPGSAFVIAVMEVNGKQVTVTVRIQAENGRIVHVSMNPKQLQDLKS” showed a protease stability score of 0.776.

“DEQEERDFNRNMVEILQQGDEEKARTNMDKDAHATYGDREYHGREQLADLLKEFRDRVDHIEMKDYSVTNGRVNVVFVAVFDGKRVELHADIQFRNGRIKRMTFKFRNEEQQKKLER” gave a protease stability score of 0.361.

“DEQEHAKRVVRRLIDAFKDGDPKTYAQQLDPNVRIQIGDKEITGREKVREEFRTVRQRVDHVNLHVKRVDVNGDKIVVQIRVVRKHNGRTEQRTLVVEVRDHNGREVVKHVSFK” had a protease stability score of 0.884.

For the sequence “DEQEKAERLAKTAVEAYETNDPEVMRRLLPPDAEVRVGDKEIHGREENSRQVQRELDRVDRVQVSMKTVHVDGNKLNVVLELRVEHDGETDTREIVIIFDVRNGTIQAQEINIG”, the protease stability score is -0.05.

Turning to “DEQELAEELFRDLTEAMKKGDPEQRKDLADEDVHQQVGDKTYHGREDNMKAMEELKRNYDSISIKLTSLSVHNGKVRIVFKVDFEHNGKTSTRRVVAHAYLQGDKVKIKKISEQ”, the protease stability score amounted to 0.749.

As for “DEQENEKNVKDVQHAMETGDEELMLRNAPPDVRMEIGDKTLRGREEVSKEFKKFAKQIDRHSIHSIRFRGDKFEINMVVTVNGRHAVVNIELQIHNGKVNSMRVDPHDLEQQKQ”, the protease stability score was -0.249.

For the sequence “DEQENKEIMRRVKEAFEHNDPDMFKKLFDEDATVEVGDKSFQGRDKIKEAMTQFKNQADRVRVDSVNVRGNKVDATVTADFNGKTASFKLEITWHNGKIKHMRINPEDNKKLQG”, the protease stability score was found to be 0.951.

As for “DEQEQAEELAKKMMENMETGDFDKRANQADPDARMEIGDKDVRGRETIASHQRELSDHIDHANATVLEVRVSNGDVEVRMQFRVQHNGRSRQEERIINATISGDKMRIKEFTQS”, the protease stability score is -0.116.

As for “DEQEQAKDFARQLQKVFRYGDEERARQLADKHVKVNVGDKIFHGREKVQKWIREIKNRSDKYKIDIKSIRVKNGRITIEFKAQEEFNGERRRVTVNAKAKLDNGEIRLTSVDQK”, the protease stability score amounted to 0.128.

With “DEQERAERLMEEMVRVLHTGDEKRLQQLADPNARFTIGDTRVHGSDEFARLLREHADNADSMQFRVKSIEVEGNHINIKFSFSVDINGRTESYTANIRIVEKGDKMQFHTQDMK”, the protease stability score was found to be 0.402.

As for “DEQERAQEALRRFLRVFQEGDPDRARQQADKDVQMVVGDKEYEGREQVSRAIESLRERVDEFHITVRRITVSGNRVVVDAKLKLNINGKEDDVTLKLVIDVSGDKISIKRVEVR”, the protease stability score worked out at 1.12.

“DEQEVREAAEVIVTGNEEQLRDNADPNVKLQVGDERYHGREHFVRMISKFQKQVDHRSVDHFHVKGDKVRINMVMHINGQHVVLQINAQIHNGRIKSMEIKVRDEKDKRILDQVEG” registered a protease stability score of 1.76.

“DEQHDREMVSRLKTALQHGDPDELVELADENARVEIGEKTVHGRHQIREQAKRWRERVDHVQIEDVDVQNGQARVQMTVDHNGRTRKEVVQMTAHNGTVESLRFQSQ”: the protease stability score is -0.216.

Take “DEQIVHRAKEMDKAFNRGDPDLFNKMADENARVEVGDNVLNGRSDYKRYMDQVRKDLNVEIKSVHHQKRPNHARVKVDQVMNHNGQPRRRHIDIKIRAHNGTAKNIHFREDG”: the protease stability score is -0.326.

“DEQKDAERAIEALRVMLQGDDDSVRKMVDPNATLTVGDTEYKGREEFVKYARTLRRRADHFRIDTVHVEGDTAVMQAQVNVNGKTKTIRINVRAHNGRVVHVHVDPDQLKRIES” had a protease stability score of 0.831.

On to “DEQKDDKRSKDIKKQVEKGNEHEILKLFDKDAKVRVGDKVVQGRESIKDEIHHLRRRVDNIEVKEVHAQGDKVTVDVQVDVNGVQIRQVLHIQMNNGKVTDAKVEFTNEEQLRQMHG”, for which the protease stability score was 0.099.

With “DEQKDEEIRRVIENNDWTEVKELADENVKASVGDKRYHGREEMEKFWKIVHDRADHIEYQDIHVHNGQFNAQVVINVNGQELDVQITMRAENGKITNMSIHATSEEVKERIKEMFS”, the protease stability score turned out to be 0.73.

Take “DEQKEAEDIINTWREVLKDNDTDKARELADKHVRVVVGDKELHGREDFVRYFHEVAHRVDHIDIDVLDLTVHNGRIHFEADAVADVNGRKDTFVIRMVWQSQGDKHNMQEMHVP”: the protease stability score was -0.09.

“DEQKEMKRFANQFNSAIRHGDEKKMADLFDPNARMEVGDTSWNGRRNLEKEWKRRNETIDHARVHLQDVSVDGNSATVVFVLVENVNGEERNDVYVFVAVKHNGKIVIDHMTQK” gave a protease stability score of 0.159.

Regarding “DEQKERDKAKKIARNFQKNNEHRFEEMMDPNVKFVYGDKEVNGRDTYRKNLHELMTRADSVDIDHVDVRNGRVNVNLVVEVNGNRAEDRVQFTVHNGHIVKVNIDPKVMETAKS”, the protease stability score was -0.326.

Consider “DEQKIKELLYKAAEAYINGNDELVRKLLKDDGKLEAGDYEYRGVDQVVKVAQDFKKYGVELEIKNYKYDGDRLDVEVELHLGGTTWKFTVTVQADGGKVDKVQFHFSEEARKRIQDG”, for which the protease stability score amounted to 0.447.

For “DEQKLAEDLAKEIIKALETGNSHRLHELMDENARLRVGDKDYTGDHRIAKWMKHKRDRVDRVEATIQEIDADGDKVTIVIEIVFDHNGRRERVIVDARAEIRGDKVRMKELHWS”, the protease stability score is -0.101.

“DEQKQAHDLLRQLDEAMRENDPDTMRDLFDKDAHVKVGDKEFRGTQKVREFNEELKRQADHFSVDVKRMETRPGHFNVQLVLHMETNGRTDHLKFRVRMRVVNGRAVVVTLHQG” had a protease stability score of 0.692.

Take “DEQKQRDFAHTYKDVFNTGDPDEQRKMVDPNARAQVGDNDFHGDEEFDKWAEERRDRVDHVEIRSMSVHGNKVSMDVDVVYDGRRVRFSMRMEYHNGRFKHFKVNPDSQRKLEG”: the protease stability score was 0.615.

“DEQKTRQLEEVKKQLEHGNEREAKKNFDENVHINVGDKQIHGMHDAAREMATSWTQIRNEMTITRVHVRGDKIEIRASMVQNTNGRPRKAKVHIDVRINNGKIKRVTVKYDG”: the protease stability score worked out at 0.181.
